Reference: the supplement of paper PMC10567573
± gives the standard deviation.

Assay: protein stability index of a GFP-peptide fusion (GPS, HEK-293T) (PSI 1-6); higher = more stable
Conditions: c terminus: a fixed tail appended
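Note: 24-mer peptide tiles fused after GFP, lentivirally expressed, FACS-sorted into six equal bins by GFP/DsRed ratio, decoded by Illumina sequencing, PSI is the read-weighted mean bin number.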

Sequence | protein stability index (treatment: DMSO) | protein stability index (treatment: MLN4924 1 uM, 8 h)
LYGQRNSAPEQELLVQDATPVSNS [GFOD1] | 4.82 ± 0.098 | 4.76 ± 0.11
CHECGKKFSQNSHLIKHRRTHTGE [ZNF75A] | 5.19 ± 0.29 | 4.72 ± 0.25
RGNLSILAAVLVEPKLHTPMYFFL [OR3A1] | 2.86 ± 0.46 | 3.06 ± 0.57
ELLGVHPGASTEEVKRAFFSKSKE [DNAJC4] | 3.8 ± 0.19 | 4.08 ± 0.42
EYDTVTREVKVLLDQLRFPNGVQL [APMAP] | 2.01 ± 0.42 | 2.22 ± 0.39
AHHRSGAQVFPESPESESDHEHEE [GNAS] | 5.63 ± 0.24 | 5.54 ± 0.26
LTGLFKGDKCHSLVGKPKIFIIQA [CASP6] | 2.83 ± 0.46 | 2.93 ± 0.65
RPAQAIGTQPRATKHKCRQLTKAS [SPACA9] | 4.47 ± 0.16 | 4.44 ± 0.34
ESLEPDAQVLMLGQILELPWKEET [FANCE] | 4.17 ± 0.11 | 4.17 ± 0.33
RIFDIKDGKLLWEQELYNNFVYNS [WASL] | 2.15 ± 0.67 | 2.13 ± 0.62
KQLALDHFKKTKKMGGKDFSFRYQ [ATL3] | 2.86 ± 0.17 | 3.12 ± 0.19
KMRMGGRVDFEEFVELIGPKLREE [CABP4] | 3.62 ± 0.11 | 3.31 ± 0.12
DDHSVRVAREDVRESCPPLGLETL [CPXM2] | 4.85 ± 0.37 | 4.92 ± 0.18
TEMIITKAGRRMFPACRVSVTGLD [TBX6] | 2.31 ± 0.3 | 2.2 ± 0.22
CTQLGSLSALKHAVLGLYLLVFLI [SCARA5] | 2.16 ± 0.24 | 2.05 ± 0.23
LEQQNQVLETKWELLQQLDLNNCK [KRT71] | 4.21 ± 0.21 | 4.4 ± 0.27
NGKEFNNWFNVTGSDKCVFLKNTE [CD69] | 3.2 ± 0.31 | 3.08 ± 0.42
SLEPFRPQQAPQDDGSQDPEVLDR [PWWP2B] | 5.51 ± 0.16 | 5.53 ± 0.14
EDHFPLLFSEASECMLLVFGIDVK [MAGEA10] | 2.73 ± 0.84 | 2.7 ± 0.77
KSRLSSVSVTYCSVSQDFPGSNLN [ETS2] | 2.62 ± 0.26 | 2.64 ± 0.18
DRVLQWERIDCQGIPPSSKDKLGV [KLHDC2] | 4.14 ± 0.36 | 3.99 ± 0.07
GWYRPPFSRVVHLYRNGKDQDGDQ [MOG] | 3.67 ± 0.34 | 3.73 ± 0.26

Sequence | protein stability index (treatment: DMSO) | protein stability index (treatment: MLN4924 1 uM, 8 h)
EDEDEDKEEEEEDCSEEYLERQLQ [TAF7L] | 5.636 ± 0.049 | 5.76 ± 0.18
YYTMDPTQHVNNWMKHNVADSQIT [PTPRD] | 2.95 ± 0.31 | 2.93 ± 0.5
ESAAFSQGSRSGVSGGSRSLNMSR [PHTF1] | 4.44 ± 0.17 | 4.5 ± 0.23
TEFTRFLCSSPLEAETPPNGPDCG [ATE1] | 4.66 ± 0.086 | 4.52 ± 0.17
TACKPVIRVPSVPPVPCVPSVPCT [KRT36] | 3.15 ± 0.28 | 3.27 ± 0.2
HVSYRELGACVRTAVAQGGWRSLW [SLC25A39] | 2.01 ± 0.19 | 2.13 ± 0.2
NWQPAVPLMHMLHLSGALDFPRQS [SPATS1] | 2.07 ± 0.39 | 2.15 ± 0.52
CSNLTPNVPNVCRMYCSDLLNPNL [SPACA3] | 2.62 ± 0.55 | 2.42 ± 0.45
APRLLKREPDWGDGDAPGSLLPAQ [CEBPD] | 4.87 ± 0.43 | 5.03 ± 0.37
LDSSHSPSSLSSSEGSSSSSSSSS [NFE2L1] | 5.51 ± 0.17 | 5.46 ± 0.15
KAFREEMKIFREKIEDFREEMWTF [CCDC70] | 2.35 ± 0.2 | 2.03 ± 0.54
NLKTLDSKPGVYTSYKPYLNRDEE [DENND6A] | 3.6 ± 0.56 | 3.63 ± 0.38
TPVPTITANVTSVPVPPAAAPPPP [BRD3] | 4.92 ± 0.17 | 5.04 ± 0.17
RTVGFEEQASAFQEQEIDGKSLLL [SAMD13] | 4.55 ± 0.2 | 4.85 ± 0.18
MAKKHKKIRLRCQKGIPPSLRGRA [TBC1D10A] | 3.29 ± 0.18 | 3.35 ± 0.29
RNTLNQPCSGSVSLQPRRSIAFRL [GMCL1] | 2.41 ± 0.29 | 2.36 ± 0.11
EVGKSFERHKLKRQDADAWTLYKI [SMG5] | 2.78 ± 0.4 | 2.9 ± 0.32
CRKCIASSGCFMEYLENQVIKDKD [RNF180] | 2.42 ± 0.26 | 2.5 ± 0.41
RKSLALDIVDEDVKLMMSTLPKSL [MYBL2] | 2.98 ± 0.27 | 2.76 ± 0.29
ENLDEAREQKEKSPPDQPAVPHPP [ADD1] | 5.61 ± 0.15 | 5.66 ± 0.28
GRSGPGCAVLDDSIYLVGGYSWSM [KLHL14] | 2.7 ± 0.39 | 2.38 ± 0.63
ADEQLHCAGKAKRSGGHAPRVREL [ESR2] | 4.45 ± 0.26 | 4.39 ± 0.3

Sequence | protein stability index (treatment: DMSO) | protein stability index (treatment: MLN4924 1 uM, 8 h)
SVTGYSFASDGDSGTCSPLRHSFQ [ADD1] | 3.28 ± 0.25 | 3.11 ± 0.36
AFPFNMQELVLKVRIQNPSLREND [ANKRD40] | 2.41 ± 0.46 | 2.33 ± 0.41
QVYKETRLFLDGEEEKEWAFEESK [AASDHPPT] | 4.56 ± 0.26 | 4.74 ± 0.15
DMAGKIKLWDLRTTKCVRQYEGHV [DCAF4] | 2.56 ± 0.18 | 2.68 ± 0.35
PRYITDVIDAEPFIRCSLQCRDLV [KLHL12] | 2.25 ± 0.57 | 2.26 ± 0.66
DAVTAALLIPKEDGVITASEDRTI [WDFY1] | 4.7 ± 0.13 | 4.86 ± 0.27
LEVDHIRTIYHMFIALLILFILST [SOAT1] | 2.58 ± 0.39 | 2.43 ± 0.41
THSSLSQELQARLQTVTREKEELL [CCDC89] | 4.89 ± 0.35 | 4.68 ± 0.22
HVKETQPPETVQNWIELLSGETWN [GOLPH3] | 3.67 ± 0.36 | 3.86 ± 0.41
MAKFGVHRILLLAISLTKCLESTK [MIA2] | 3.27 ± 0.52 | 3.06 ± 0.8
ATPGGGTGEAARPHKGLNLHPLLS [PCDHGC5] | 3.74 ± 0.17 | 3.83 ± 0.21
LESEDWEEDNWDPELMEHTEAESE [TEX19] | 5.59 ± 0.29 | 5.53 ± 0.32
EEVSSTVHIETFTTRHGEVGSALH [C10orf62] | 4.43 ± 0.36 | 4.57 ± 0.19
AASPQDLAGGYTSSLACHRALQDA [MNAT1] | 4.21 ± 0.25 | 4.24 ± 0.37
LIQPQDQSCWAFLPDLCLCRVFWW [FBXO39] | 2.88 ± 0.78 | 2.9 ± 0.55
VKWLSFHSGYDFGYLIKILTNSNL [CNOT7] | 2.58 ± 0.21 | 2.86 ± 0.69
RPNLETYYERVLKRKTFNKVLGHV [GDAP1] | 2.46 ± 0.092 | 2.47 ± 0.32
TRTTSFKGTSPSSKYVKLNVGGAL [KCTD10] | 3.01 ± 0.41 | 2.87 ± 0.28
ETNRLGRLINHSKCGNCQTKLHDI [KMT5A] | 2.57 ± 0.36 | 2.75 ± 0.23
FTGELAESRQTEVVIRDIDERAME [KLHL20] | 4.69 ± 0.21 | 4.89 ± 0.33
GVDHTKMSLHGASGGHERSRDRRR [BTBD10] | 5.26 ± 0.27 | 5.3 ± 0.24
